The values that follow come from patent US20190233498A1 (H LUNDBECK A S, published 2019).

The target in experiment [1] is T1, human PACAP38 (human, not fully specified; C-terminal lysine is amidated; N-terminal or C-terminal biotin in the HTRF and PC-12 cell binding assays).
T1 peptide: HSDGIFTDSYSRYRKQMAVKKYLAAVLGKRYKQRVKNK
The experiment is described as follows: cell-based or functional assay.

Experiment [2] concerns the target T1, human PACAP38. The experiment is described as follows: cell-based or functional assay.
For experiment [3], the target named is T1, human PACAP38. The experiment is described as follows: HTRF binding, biotin-PACAP38. The method, boiled down:
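Antibody dilution series (top 100 nM final) incubated with N- or C-terminal biotinylated PACAP38 (35 nM final), alone or with 350 nM PACAP27 or VIP. HTRF with Eu³⁺ anti-human Fc donor and d2-streptavidin acceptor, 1 h at room temperature, read at 620/665 nm; EC₅₀ from binding curves.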

Experiment [4] has as its target T1, human PACAP38. The experiment is described as follows: inhibition of 30 nM biotin-PACAP38 binding to PC-12 cells, TRF. Here is the method: To identify antibodies that block PACAP38 binding to PAC1-R-expressing cells, adherent PC-12 cells (ATCC, Manassas, Va.) expressing PAC1-R were used in a Europium-based PAC1-R expressing cells binding assay.
Antibody solutions were incubated with N-terminal biotinylated PACAP38 at 10× the final concentration (100 nM or 30 nM) for 1 hr, then added to PC-12 cells that were plated 24 hrs. prior in black clear bottom 96 well plates (COSTAR™, Corning Incorporated, Corning, N.Y.) and further incubated for 1 hr at room temperature. After three washes, the cells were incubated with 20 μl Europium-labeled streptavidin (PerkinElmer, Waltham, Mass.) for 1 hr at room temperature. Cells were washed three times, then 20 μl DELFIA® Enhancement solution (PerkinElmer, Waltham, Mass.) was added to each well and incubated for 15 minutes with gentle shaking. Plates were read (Time Resolved Fluorescence (“TRF”)) on SPECTRAMAX® (Molecular Devices, Sunnyvale, Calif.) plate reader.
FIGS. 14A-14BB are representative of the inhibition curves obtained by this method (results are shown for Ab1, Ab2, Ab3, Ab4, Ab5, Ab6, Ab7, Ab8, Ab9, Ab10, Ab11, Ab12, Ab13, Ab14, Ab15, Ab16, Ab17, Ab18, Ab19, Ab1.H, Ab10.H, Ab22, Ab23, Ab3.H, Ab4.H, Ab5.H, Ab9.H, and Ab12.H, respectively) wherein the PAC1-R expressing cells were PC-12 cells.

For experiment [5], the target named is T1, human PACAP38. The experiment is described as follows: SPR, Ab immobilised. The method, boiled down: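 SPR with antibody amine-coupled to the chip and human PACAP38 flowed as analyte at 1.23–100 nM in PBST containing 0.25 M arginine, 0.2 mg/ml BSA and 0.005% azide, pH 7. Association lasted 2–4 min and dissociation 3–120 min. Kinetics were fitted to a 1:1 Langmuir model.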
For orientation: Surface plasmon resonance follows binding to a sensor surface in real time, without labels.

Experiment [6] concerns the target T2, human PACAP27 (human, C-terminal leucine is amidated; 125I-labelled in Example 10).
T2 peptide: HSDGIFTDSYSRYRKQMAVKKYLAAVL
The experiment can be described thus: SPR, Ab immobilised.

Another experiment has as its target T3, human VIP (human).
T3 construct: also called Vasoactive Intestinal Peptide
T3 peptide: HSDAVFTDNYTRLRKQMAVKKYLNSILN
The experiment is described as follows: SPR, Ab immobilised.

Experiment [7] deals with T1, human PACAP38. The experiment is described as follows: cell-based or functional assay.
Experiment [8] deals with T2, human PACAP27. The experiment is described as follows: inhibition of 0.1 nM 125I-PACAP27 binding to human PAC1-R membranes. On the procedure:
To identify antibodies that block PACAP27 binding to PAC1-R, antibodies at an initial concentration of 30 nM were diluted in incubation buffer (50 mM Hepes pH 7.4, 1 mM CaCl₂, 5 mM MgCl₂, 0.2% BSA) and serial 1:3 dilutions were performed. Antibody dilutions (30 nM, 10 nM, 3 nM, 1 nM, 0.3 nM, 0.1 nM, 0.03 nM, 0.01 nM, 0.003 nM and 0.001 nM) were then mixed and pre-incubated at 25° C. for 30 minutes with 0.1 nM of ¹²⁵I-labelled PACAP27 in incubation buffer. The antibody: ¹²⁵I-labelled PACAP27 mixture was then added to 0.5 μg aliquots of cell membranes derived from Chem-1 cells expressing human recombinant PAC1-R long isoform in incubation buffer. The mixture was then incubated for 1 hour at 25° C. Following incubation, the samples were filtered and washed. Afterward, the filters were counted to quantitate ¹²⁵I-labelled PACAP27. As an experimental control, non-specific binding to the cell membranes was estimated using 0.1 μM of […] PACAP27.

Experiment [9] deals with T2, human PACAP27. The experiment is described as follows: cell-based or functional assay.

B1: anti-PACAP antibody Ab23 (antibody, human IgG1, kappa, N297A, V domains shown)
VH: QSVEESGGRLVTPGTPLTLTCTVSGFSLNNYAMSWVRQAPGKGLEWIGIMGVNDITYYASWAKGRFTISKTSTTVDLKMTSLTTEDTATYFCTREIRDDGDSSDKLWGPGTLVTVSS
VL: AIKMTQTPSSVSAAVGGTVTINCQASEDIYTNLAWYQQKPGQPPNLLIYDASDLASGVPSRFSGSGDGTQFTLTISAVQCEDAATYYCQGVAWSSNTGYGSAFGGGTEVVVKR
notes: full-length rabbit/human chimeric antibody; PACAP38 specific
Consider B1, for which, in the experiment with human PACAP38 [1], the “IC50, 1 nM PACAP38-induced human VPAC2-R mediated cAMP increase” value is 1.79 nM. The “IC50, 5 nM PACAP38-induced human VPAC1-R mediated cAMP increase” value with human PACAP38 [2] worked out at 2.67 nM. Also, the concentration giving a half-maximal response (EC50) with human PACAP38 [3] worked out at 0.56 nM. Moreover, the IC50 in the experiment with human PACAP38 [4] is 14.9 nM. Besides, in the experiment with human PACAP38 [5], the affinity, expressed as Kd, was 0.071 nM; the off-rate (koff) was found to be 3.6e-05 s⁻¹; the kon came to 510000 M⁻¹ s⁻¹. In the experiment with human PACAP27 [6], this molecule gave a Kd of 35 nM, a dissociation rate constant (koff) of 0.031 s⁻¹ and an on-rate constant (kon) of 890000 M⁻¹ s⁻¹. In the experiment with human VIP, this molecule showed a dissociation constant Kd of 730 nM, a koff of 0.32 s⁻¹ and a kon of 430000 M⁻¹ s⁻¹. In addition, the “IC50, 0.1 nM PACAP38-induced PAC1-R mediated cAMP increase” value with human PACAP38 [7] was 0.115 nM.

B2: anti-PACAP antibody Ab1.H (antibody, human IgG1, kappa, N297A, V domains shown)
VH: EVQLVESGGGLVQPGGSLRLSCAASGFTVSSAVMNWVRQAPGKGLEWIGSIVASGTTYYASSANGRFTISRDNSKNTLYLQMNSLRAEDTAVYYCARGGGEFFIWGQGTLVTVSS
VL: DIQMTQSPSTLSASVGDRVTITCQSSESVYSNYLSWYQQKPGKAPKFLIYQASNLASGVPSRFSGSGSGTEFTLTISSLQPDDFATYYCAGGYSENIVGFGGGTKVEIKR
notes: humanized form of Ab1, full length
With B2, the “IC50, 1 nM PACAP38-induced human VPAC2-R mediated cAMP increase” value with human PACAP38 [1] was 0.983 nM. The “IC50, 5 nM PACAP38-induced human VPAC1-R mediated cAMP increase” value in the experiment with human PACAP38 [2] was 1.02 nM. The IC50 in the experiment with human PACAP27 [8] was determined as 0.7 nM; in the experiment with human PACAP38 [4] it was 56.3 nM. The EC50 in the experiment with human PACAP38 [3] came out at 0.46 nM. Further, the dissociation constant (Kd) with human PACAP38 [5] is not above 0.021 nM; with human PACAP27 [6] it was not above 0.013 nM; in the experiment with human VIP, 4800 nM. In addition, the off-rate constant (koff) in the experiment with human PACAP38 [5] was not above 1e-05 s⁻¹; with human PACAP27 [6], not above 1e-05 s⁻¹; in the experiment with human VIP, 0.18 s⁻¹. The association rate constant (kon) in the experiment with human PACAP38 [5] amounted to 470000 M⁻¹ s⁻¹; with human PACAP27 [6], 760000 M⁻¹ s⁻¹; with human VIP it was 38000 M⁻¹ s⁻¹. Also, the “IC50, 0.1 nM PACAP38-induced PAC1-R mediated cAMP increase” value with human PACAP38 [7] came to 0.26 nM. Moreover, the “IC50, 0.1 nM PACAP27-induced PAC1-R mediated cAMP increase” value in the experiment with human PACAP27 [9] was determined as 0.0577 nM.

B3: anti-PACAP antibody Ab12.H (antibody, human IgG1, kappa, N297A, V domains shown)
VH: EVQLVESGGGLVQPGGSLRLSCAASGFSLSSYAMGWVRQAPGKGLEWIGDISTYGTTDYASWVYGRFTISRDNSKNTVYLQMNSLRAEDTAVYFCARDYWLSLWGQGTLVTVSS
VL: AAQLTQSPSTLSASVGDRVTITCQSSQSVYDNNALAWYQQKPGKAPKLLIYAASTLASGVPSRFSGSGSGTEFTLTISSLQPDDFATYYCLGGYYDPADNAFGGGTKVEIKR
notes: humanized form of Ab12, full length
In the case of B3, the “IC50, 1 nM PACAP38-induced human VPAC2-R mediated cAMP increase” value in the experiment with human PACAP38 [1] is 0.653 nM. The “IC50, 5 nM PACAP38-induced human VPAC1-R mediated cAMP increase” value with human PACAP38 [2] is 1.28 nM. Also, the IC50 with human PACAP27 [8] was 0.16 nM; with human PACAP38 [4], 68.1 nM. In addition, the Kd in the experiment with human PACAP38 [5] was not above 0.026 nM; with human PACAP27 [6] it was 0.3 nM; with human VIP, 51 nM. For the same molecule, the figures for the koff with human PACAP38 [5], in the experiment with human PACAP27 [6] and with human VIP were not above 1e-05 s⁻¹, 7.9e-05 s⁻¹ and 0.014 s⁻¹, respectively. Moreover, the association rate constant (kon) is 380000 M⁻¹ s⁻¹ with human PACAP38 [5], 260000 M⁻¹ s⁻¹ in the experiment with human PACAP27 [6] and 280000 M⁻¹ s⁻¹ in the experiment with human VIP. Besides, the “IC50, 0.1 nM PACAP38-induced PAC1-R mediated cAMP increase” value with human PACAP38 [7] stood at 0.114 nM. Further, in the experiment with human PACAP27 [9], the “IC50, 0.1 nM PACAP27-induced PAC1-R mediated cAMP increase” value came to 0.0863 nM.

What is called EC50 is the concentration at which the effect is half-maximal. The IC50 is the midpoint of a concentration-inhibition curve. Lower therefore signals inhibition by little substance. Broadly, the Kd is the equilibrium constant for the complex coming apart. A high value points to lower affinity. In general, koff refers to a measure of how fast the partners let go of each other. Read a low koff as a long-lived complex. Broadly, the kon is the second-order rate constant of association. The low end stands for slower complex formation, the high end for faster complex formation.
